# From the supplement of paper PMC9170038
# Tested on: K4 kissing-loop RNA reporter
# Assay: apparent KD of K4 kissing-loop reporter; higher = weaker reporter binding
# Settings: Eterna round: R107
# Protocol: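 RNA-MaP round R107: designed RNA switches with theophylline, tryptophan, arginine or FMN aptamers are transcribed on-chip within common flanks. They are titrated with a labelled K4 kissing-loop RNA reporter in RNA-MaP buffer (100 mM Tris pH 7.5, 80 mM KCl, 4 mM MgCl2), without ligand or with the indicated ligand. Median apparent KD per design.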
# [1] = input ligand: theophylline 20 uM
# [2] = input ligand: tryptophan 2.4 mM
# 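Note: bound reporter read as fluorescence of individual clusters on recovered sequencing chips by microscopy, with normalized cluster intensities fitted with a binding model.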
Sequence,apparent KD of K4 kissing-loop reporter (input ligand: FMN 200 uM) [nM],apparent KD of K4 kissing-loop reporter (input ligand: arginine 13.2 mM) [nM],apparent KD of K4 kissing-loop reporter (input ligand: none) [nM],apparent KD of K4 kissing-loop reporter [1] [nM],apparent KD of K4 kissing-loop reporter [2] [nM]
UAGUCGCUAGUUAGCGACAACGGGUCAGAUACCAGACUAGCGAUAGUCCCUUGGCAGCUGAAGUUCAGUGAUGUUGAACGGAUUA [Theo A SS t10],192,296,265,230,207
UAGUCUCGAGUCUGAGAUUACGGGUCAGAUACCAGACUAGAGAUAGUCCCUUGGCAGCUGAAGUUCAGUGAUGUUGAACGGAUUA [Theo B SS t10a],501,394,441,510,377
UAUCGAGUGAUGUUCGAUGUAGUCCAUUCAGAGGAUAUAGGAUUGACUAGAAGGCUGAAACCUUCUUCGAGUGAUGUUCGAGGAU [Same State FMN A GF4],92.5,39.6,58.9,45.2,47.4
UAUCGAGUGAUGUUCGAUGUAGUUCAUUCAGAGGAUAUAGGAUGGGCUAGAAGGCUGAAAAGUGCUUCGAGUGAUGUUCGAAGAU [Exclusion FMN A GF 6],64.6,40.9,53.7,40.9,44.7
UAUGAAUGUGGAGGAUAUUGAUUGAAUCUUGGUCUGGAGUGAUGUUCCGGGAAGCCUUGGAUUCAUCGAGAAGGCCAUGGAUAGU [#03 K4 FMN B Same State],111,111,118,109,95.9
UAUUGUACAGGGAAAUUGAUAAUAGACUUACGAGGACCGGUACGGCCGCCACUCGAUAGUCGAGUGAUGUUCGAAUGCUAUUGAU [Attempt 1],218,210,211,314,132
UCCUGCAAUCGGCCACGAAAGUGGAUUGAUACCAGAGUCGAAAGACUCCCUUGGCAGCGAGUGAUGUUCGAAGCAGGUAAAUAAA,464,380,502,514,432
UCCUGCAAUCUGCCACGAAAGUGGGUUGAUACCAGAGUCGAAAGACUCCCUUGGCAGCGAGUGAUGUUCGUUGCAGGUGUAUAAA [MatMod 10 - Jieux - Exclusion - Theophylline A],195,184,194,209,179
UCGGACCCUGGAGGAUAUGAGUCUAGUGAUGUUAGGCGGUCCAUGCGCGUGGCGCGUUAUGCCCUUUUAGAAGGCCAGGGUCCGA [#2 Exclusion - FMN B Attempt #15 (HarryS)],113,72.4,104,90.7,84.6
UCUCAAGCACAGUGAUGUUGUGCUUGGGAAGGAGCGCGUGGGAACGCAGGUAGGUCGCCCGGUAAAUCGCGUCAAUGCUAGAGGC [Arg A Ex t5],118,110,99.9,100,116
UCUGGUAUAUCUGAUACCAGAGAAUAGAAUCAAUUGAAUAUGGAGUGAUGUUCCAUAAAACUCCCUUGGCAGCAGAUAAUCAUAU [Same State Theophylline B GF 22],113,167,125,172,112
UGACAUUGCUCAGAUACCAGACAAGAGGAUCACCCUUGUGCCAACGUACAAAUAAUAAAUGUCCCUUGGCAGCUGAGCAAUGUCU [TheoBX 15],64.1,31.9,58.2,92.8,47.5
UGACAUUGCUCAGAUACCAGACCUGAGGAUCACCCGGGUGCCAAACGUACAAUAAUAAAGGUCCCUUGGCAGCUGAGCAAUGUCU [TheoBX 14],56.2,39.7,103,68.4,83.9
UGACUGGACUGAAGGAGCGCGAAACUCCUAGUGAUGUUAGGACAACGAGACAAAGUCUCGACGCAGGUAGGUCGCAGUCUAGUCU,148,111,131,144,132
UGACUGGACUGAAGGAGCGCUAAAACUCCUAGUGAUGUUAGGAAAACGAGACAAAGUCUCGAGCAGGUAGGUCGCAGUCUAGUCU [ArgBS 21 #SwitchBubble #StaticStem],142,119,131,148,128
UGACUGGACUGAAGGAGCGUUGAAGGAGCGUAGUGAGUGAUGUUCACUACAGGUAGGUCGCAGCAGGUAGGUCGCAGUCUAGUCU [ArgBS 25 #DoubleAptamer #SwitchBubble],149,107,101,83,145
UGAGUGAUGUUCAAGGACUAGAUCUAAAUAAAGGAUAUAGCAUACGCUAGAAGGUUAAAAUUUCUGGAUCCCAGUUUAAACCUUU [theeternabot_sameState_KL_FMN_A_49],246,154,222,222,195
UGAUACCAGACGGCCGCCACUCCCGCAGGUCAAAGACCUGCGAAGAUGGUUCUUCAGUGAUGUUGGAGGACCGGGUCUGGUAUCU [FiskerMod 23 - Jieux - Exclusion - Tryptophan B],173,128,137,140,314
UGAUACCAGACGGCCGCCACUCCCGUAAGUCAAAGACUUACGAAGAGAGUUUUUCAGUGAUGUUGGAGGACCGGGUCUGGUAUCU [FiskerMod 16 - Jieux - Exclusion - Tryptophan B],838,618,870,850,721
UGAUACCAGACGGCCGCCACUGGGACCGGGAGUGAUGUUCCAAAUAAAAGAAACUCGGCCGCCACUAGGACCGGGUCUGGUAUCU [TrypBX 30 #DoubleAptamer #SwitchBubble],622,278,379,479,110
UGAUACCAGACGGCCGCCACUUCCGUAAGUCAAAGACUUGCCAAGGGAAUCGUCCAGUGAUGUUGGAGGACCGGGUCUGGUAUCU [FiskerMod 5 - Jieux - Exclusion - Tryptophan B],677,491,725,511,550
